Assay results taken from paper PMC6607583.

What was measured:
[1] = molecular target: HIV-1 NL4-3 Nef-FTS Mut1 (WL-EEEE to AA-AAAA) (HIV-1 (NL4-3 strain)) (UniProt P03406); test: pull-down; HeLa cells transiently transfected with FTS-tagged bait, cross-linked with 1 mM DSP (4 °C, 6 h), lysed in 50 mM Tris-HCl pH 7.4, 300 mM NaCl, 5 mM EDTA, 0.5% NP-40; bait isolated on Strep-Tactin resin overnight at 4 °C; endogenous prey detected by immunoblotting
[2] = molecular target: HIV-1 NL4-3 Nef-FTS Mut2 (EEEE-PxxP to AAAA-AxxA) (HIV-1 (NL4-3 strain)) (UniProt P03406); test: as above

autophagy-related 9A (ATG9A) protein, endogenous in HeLa (from UniProt Q7Z3C6 1-839) (natural protein)
Nef-ATG9A pulldown relative to WT Nef [1]: 10 % of WT Nef
Nef-ATG9A pulldown relative to WT Nef [2]: 10 % of WT Nef
